Assay results as given in US20030092619A1.

Target: full length STAT6 (human) (UniProt P42226)
Test: cell-based or functional assay

full length STAT6 (human), sequence (P42226 2-847): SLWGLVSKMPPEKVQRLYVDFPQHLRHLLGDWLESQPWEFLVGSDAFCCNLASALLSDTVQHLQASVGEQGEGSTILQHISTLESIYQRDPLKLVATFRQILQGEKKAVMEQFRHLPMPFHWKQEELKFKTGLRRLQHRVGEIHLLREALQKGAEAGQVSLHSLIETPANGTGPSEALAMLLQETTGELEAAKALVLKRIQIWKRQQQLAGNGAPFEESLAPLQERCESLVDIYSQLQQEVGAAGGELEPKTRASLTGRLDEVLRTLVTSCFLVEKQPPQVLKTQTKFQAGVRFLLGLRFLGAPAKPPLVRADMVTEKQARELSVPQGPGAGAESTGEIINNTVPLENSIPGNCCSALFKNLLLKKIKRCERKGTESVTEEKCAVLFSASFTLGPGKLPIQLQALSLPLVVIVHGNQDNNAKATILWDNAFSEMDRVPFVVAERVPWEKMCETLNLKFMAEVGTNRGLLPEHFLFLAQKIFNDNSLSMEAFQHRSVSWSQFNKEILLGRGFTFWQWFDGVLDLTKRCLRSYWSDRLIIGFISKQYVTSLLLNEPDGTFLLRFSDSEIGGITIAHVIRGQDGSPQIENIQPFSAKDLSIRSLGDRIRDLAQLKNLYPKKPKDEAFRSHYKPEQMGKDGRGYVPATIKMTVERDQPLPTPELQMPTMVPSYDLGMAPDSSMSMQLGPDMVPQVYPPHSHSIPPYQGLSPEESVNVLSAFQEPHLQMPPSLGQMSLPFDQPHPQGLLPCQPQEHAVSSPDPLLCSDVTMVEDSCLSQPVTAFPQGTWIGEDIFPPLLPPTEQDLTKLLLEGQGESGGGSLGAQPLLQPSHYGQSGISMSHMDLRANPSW

luciferase reporter with multimerized STAT6 response elements, HepG2 cells, IL-4 induced: < 3 fold
Substance: NCoA-1 (nuclear coactivator 1), full length (from UniProt P70365 2-1447)
